One data set deals with T1, PiUDH (Pyrobaculum islandicum, UniProt A1RUM9).
T1 construct: gene Pisl_1505; N-terminal His6 tag, codon-optimised gene, pET15b, whole E. coli BL21(DE3) cells
Kind of data set: whole-cell conversion, PAMN-HPLC and ESI-MS of UDP-GlcA. It counts as cell-based. Conditions: BL21-PiUDH whole cells, NAD+ varied 0-1.2 mM, 2.3 mM UDP-Glc, sodium phosphate.

Substrate in the data set “purified protein”: O=P(O)(O)O[C@H]1O[C@H](CO)[C@@H](O)[C@H](O)[C@H]1O
The data set can be described thus: purified protein. It counts as biochemical, Sulfurisphaera tokodaii. Conditions: 3 mM UTP, 20 mM MgCl2, 50 mM Tris-HCl pH 7.5, 80 °C (also measured at 37 °C).

These results are taken from PMC6604206, “Cascade synthesis of uridine-5′-diphosphate glucuronic acid by coupling multiple whole cells expressing hyperthermophilic enzymes” (Microbial Cell Factories, 2019).

The Km is the substrate concentration at which the rate is half of its maximum. Broadly, the Vmax is the top rate of the reaction or transport when substrate is in excess.

T1 sequence (A1RUM9 entry or part of it): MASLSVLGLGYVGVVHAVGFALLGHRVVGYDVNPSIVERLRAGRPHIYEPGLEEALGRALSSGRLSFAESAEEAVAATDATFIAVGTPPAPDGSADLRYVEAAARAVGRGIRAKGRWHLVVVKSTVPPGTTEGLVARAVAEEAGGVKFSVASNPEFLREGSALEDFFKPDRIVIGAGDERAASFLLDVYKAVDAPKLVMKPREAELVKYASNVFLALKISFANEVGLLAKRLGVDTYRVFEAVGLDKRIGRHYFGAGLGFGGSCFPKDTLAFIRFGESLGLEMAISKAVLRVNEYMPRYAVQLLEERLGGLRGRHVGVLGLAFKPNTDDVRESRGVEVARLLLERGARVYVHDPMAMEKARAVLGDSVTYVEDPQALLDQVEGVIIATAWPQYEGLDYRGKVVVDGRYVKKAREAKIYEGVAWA

`NC(=O)c1ccc[n+]([C@@H]2O[C@H](COP(=O)(O)OP(=O)(O)OC[C@H]3O[C@@H](n4cnc5c(N)ncnc54)[C@H](O)[C@@H]3O)[C@@H](O)[C@H]2O)c1` [NAD^+]: the “whole-cell conversion, PAMN-HPLC and ESI-MS of UDP-GlcA” value at PiUDH is recorded as “The synthetic efficiency showed a positive correlation with the concentration of NAD^+”.

B1: StUSP (Sulfurisphaera tokodaii str. 7) (protein)
chain: MKAFILAAGSGERLEPITHTRPKAFVPILSKPLIEYQIEYLRKCGIRDITVIVSSKNKEYFEKKLKEISIVTQKDDIKGTGAAILSAKFNDEALIIYGDLFFSNEKEICNIITLKENAIIGVKVSNPKDYGVLVLDNQNNLSKIIEKPEIPPSNLINAGIYKLNSDIFTYLDKISISERGELELTDAINLMAKDHRVKVIEYEGYWMDIGKPWNIIDVNKWALDNLVFSQNLGNVEDNVKIKGKVIIEEDAEIKSGTYIEGPVYIGKGSEIGPNSYLRPYTILVEKNKIGASVEVKESVIMEGSKIPHLSYVGDSVIAEDVNFGAGTLIANLRFDEKEVKVNVKGKRISSGRRKLGAFIGGHVRTGINVTILPGVKIGAYARIYPGAVVNRDVGYGEFFKV
Consider B1, for which, in the data set “purified protein”, the Km was 1.474 ± 0.225 mM and the Vmax worked out at 14500 ± 227 µmol/min/mg.
